Earlier results on one substance are cited in publication PMC2939181.

This data set concerns the target CPT-1 (UniProt P50416). Put plainly: FRET.
Chain of UniProt P50416 (P50416 2-773): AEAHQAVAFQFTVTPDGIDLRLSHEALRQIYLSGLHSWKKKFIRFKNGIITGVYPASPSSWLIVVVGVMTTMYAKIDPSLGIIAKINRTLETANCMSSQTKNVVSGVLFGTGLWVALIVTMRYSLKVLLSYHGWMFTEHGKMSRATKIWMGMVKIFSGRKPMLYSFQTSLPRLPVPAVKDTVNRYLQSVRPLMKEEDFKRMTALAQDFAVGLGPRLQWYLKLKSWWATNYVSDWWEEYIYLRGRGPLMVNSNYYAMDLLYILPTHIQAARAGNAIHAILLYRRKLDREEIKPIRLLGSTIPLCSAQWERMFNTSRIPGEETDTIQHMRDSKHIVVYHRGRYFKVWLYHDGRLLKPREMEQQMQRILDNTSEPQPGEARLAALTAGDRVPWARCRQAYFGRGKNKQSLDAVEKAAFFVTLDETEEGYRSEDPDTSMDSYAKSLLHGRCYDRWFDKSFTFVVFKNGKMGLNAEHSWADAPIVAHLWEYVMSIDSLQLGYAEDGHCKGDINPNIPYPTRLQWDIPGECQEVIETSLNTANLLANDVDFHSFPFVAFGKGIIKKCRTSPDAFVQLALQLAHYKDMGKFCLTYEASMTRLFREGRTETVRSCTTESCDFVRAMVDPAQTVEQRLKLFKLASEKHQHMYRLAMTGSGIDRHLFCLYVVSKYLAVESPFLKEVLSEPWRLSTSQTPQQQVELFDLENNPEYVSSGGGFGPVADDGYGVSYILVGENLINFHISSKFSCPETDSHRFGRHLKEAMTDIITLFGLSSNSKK

As a reminder, the Kd is the constant that tells how readily two partners part at equilibrium. On to L-FABP (from UniProt P07148), for which the Kd is 2.1 nM.
